The text below walks through data of patent US20220306690A1 (CURATORS OF THE UNIVERSITY OF MISSOURI, published 2022).

Experiment [1] concerns the target T1, HIV-1 capsid protein (CA) hexamer (HIV-1, UniProt O12157 131-361, fluorescently labeled with Alexa Fluor 647 analog NT647 (site of labeling not stated)).
T1 construct: also called CA-hexamers
The experiment in a line: MicroScale Thermophoresis; Kd of Pep-2-cyclic (32 nM) against Kd of small molecule PF74 ([…] nM) on CA-hexamers. On the technique in general: Microscale thermophoresis detects binding through changes in fluorescence in a small temperature gradient.

Experiment [2] concerns the target T1, HIV-1 capsid protein (CA) hexamer. In words: MicroScale Thermophoresis; 200 nM NT647-labeled CA-hexamers, Pep-2-cyclic titrated 1 nM to 2000 nM; fit to quadratic equation.
For experiment [3] the target is unchanged. In words: MicroScale Thermophoresis (MST), 200 nM NT647-labelled CA-hexamers, Pep-2-cyclic titrated 1 nM to 2000 nM [B panel A].

B1: Pep-2-cyclic: Cyc(SGVFTFGPVNFPG) (peptide)
peptide: SGVFTFGPVNFPG
modifications: head-to-tail cyclic: cyclized by coupling the C-terminal carboxylic acid and the N-terminal amino group
As to B1, the “fold greater affinity than PF74” value in experiment [1] is ~7 fold. Moreover, binding in experiment [2] was characterised by a dissociation constant (Kd) of 32 nM. In experiment [3], the EC50 (read off the curve) (usually the concentration needed to bring the measured effect to its halfway point) is ~70 nM.
